Data on two substances can be found in publication PMC7840181.

This experiment deals with CLAG3-tv2 (CLAG3h with C-terminal His10-FLAG-thrombin-TEV-HA-twinstrept-BC2 multi-tag) (Plasmodium falciparum). Put plainly: native MS; endogenous RhopH complex purified via CLAG3-tv2 (FLAG, then Ni-NTA), exchanged into 200 mM ammonium acetate pH 7.5, 0.01% Tween-20; Exactive Plus EMR.

“RhopH2 (from UniProt C0H571 20-1378) (natural protein)”: the stoichiometry N came out at 1. The same measure for “RhopH3 (from UniProt Q8I395 25-897) (natural protein)”: 1.

The stoichiometry N is a count of units in the complex or per binding partner.
